Results published in the supplement of paper PMC9732359.
± gives the uncertainty stated by the source.

Test: protein stability index of a GFP-peptide fusion (yeast GPS) (PSI 1-4); higher = more stable; sorted into four equal gates, so the index is relative within each strain
Procedure, shortened: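 Tiled yeast protein peptides of 17 residues were each joined downstream of GFP, on plasmids that also express Cherry. The pooled library was maintained in yeast, and mid-log cultures in leucine-free medium were sorted into four equal gates on the GFP/Cherry ratio. Plasmids from every gate were amplified by PCR and sequenced on Illumina, with barcodes linking reads to strains. The protein stability index of a peptide is its gate-number-weighted read frequency summed over the gates.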

Sequence | protein stability index (doa10∆) | protein stability index (pdr5∆) | protein stability index (san1∆) | protein stability index (ubr1∆)
YISLLKLQGLYENIPIY [YDL116W/NUP84] | 1.67 ± 0.06 | 1.42 ± 0.045 | 1.59 ± 0.12 | 1.25 ± 0.041
FQALDSEETQFKYVEDR [ITC1] | 2.88 ± 0.097 | 3.44 ± 0.12 | 3.06 ± 0.069 | 3.45 ± 0.14
GLSLAGLAPDARVLSNY [PRE5] | 1.23 ± 0.098 | 1.58 ± 0.1 | 1.27 ± 0.24 | 1.13 ± 0.1
EDDDIRSRMLPTITLDD [SNF5] | 2.46 ± 0.15 | 3.07 ± 0.18 |  | 3.44 ± 0.14
APYRKQIISNAHNKPSL [YAR002W/NUP60] | 2.17 ± 0.073 | 2.47 ± 0.081 | 2 ± 0.1 | 2.36 ± 0.085
NIEEMARVILYLKNVLF [SIN4] | 2.23 ± 0.075 | 2.31 ± 0.079 | 2.01 ± 0.11 | 2.05 ± 0.037
KDGEDIIFNYVPGPGTK [CSL4] | 2.56 ± 0.17 | 2.53 ± 0.11 | 2.23 ± 0.14 | 2.52 ± 0.29
LFPEQQNKEIKAERVED [RPL6A] | 3.61 ± 0.11 | 3.14 ± 0.1 | 3.59 ± 0.065 | 3.35 ± 0.056
AQGVAVQLKRQPAQPRE [RPL21A] | 1.66 ± 0.088 | 1.22 ± 0.081 | 1.61 ± 0.084 | 1.88 ± 0.07
GVSLLALWKEKKEKPRS [RPS23A] | 3.12 ± 0.089 | 2.29 ± 0.11 | 2.21 ± 0.1 | 2.94 ± 0.075
LALETVLIKMVKMLRDN [SIR3] | 2.26 ± 0.11 | 2.06 ± 0.074 | 2.08 ± 0.079 | 1.77 ± 0.092
LRKSRETVKLPRVSNQS [RRI2] |  | 3.42 ± 0.22 |  | 
QKNFMDQFQWILRKPGK [RRI2] | 2.42 ± 0.14 | 2.66 ± 0.12 | 2.67 ± 0.15 | 2.49 ± 0.091
KAVKLRKSYKNQIADLS [ROX3] | 2.74 ± 0.1 | 2.85 ± 0.07 | 2.77 ± 0.095 | 2.95 ± 0.037
LYTLVINDAGKAKKLIQ [RPL38] | 2.06 ± 0.11 | 2.19 ± 0.098 | 1.99 ± 0.1 | 1.56 ± 0.13
FKKLTKDIFRYMQRTVE [RPB2] | 1.63 ± 0.045 | 1.4 ± 0.034 | 1.25 ± 0.087 | 1.36 ± 0.033
PGAKPLQVGDVVSTTAV [FAS1] | 2.51 ± 0.075 | 2.42 ± 0.086 | 2.48 ± 0.077 | 2.66 ± 0.065
TFHDELNLKFKEKWPSL [YML103C/NUP188] | 3.23 ± 0.095 | 3.57 ± 0.2 | 2.81 ± 0.082 | 3.09 ± 0.098
LTPNEIKELEHLHDAVF [SWP82] | 2.95 ± 0.072 | 3.18 ± 0.075 | 3.13 ± 0.055 | 2.95 ± 0.052
GVQSNGDQFLRYVNLLG [PRE4] | 2.6 ± 0.073 | 2.51 ± 0.05 | 2.17 ± 0.063 | 2.31 ± 0.036
GLIAARRTGLLRGSQKT [RPL2A] | 3.04 ± 0.12 | 3.08 ± 0.11 | 2.88 ± 0.11 | 2.78 ± 0.11
LRSIYHQFHDILEEKTD [NSL1] | 2.22 ± 0.062 | 2.07 ± 0.047 | 2.18 ± 0.074 | 2.04 ± 0.04
TLKNRGLPLGIAEEKMW [YGR119C/NUP57] | 1.8 ± 0.078 | 1.7 ± 0.078 | 1.44 ± 0.29 | 1.89 ± 0.039
VLKEKDVPAYNVTSFMP [SRB8] | 3.11 ± 0.064 | 3.01 ± 0.051 | 3.03 ± 0.051 | 3 ± 0.037
ETAAMASLALAHVFVGT [RPN1] | 1.39 ± 0.044 | 1.58 ± 0.047 | 1.61 ± 0.098 | 1.41 ± 0.052
IPSQRGTSTTHGSISPQ [SIR3] | 2.39 ± 0.033 | 2.58 ± 0.035 | 2.37 ± 0.036 | 2.54 ± 0.026

Sequence | protein stability index (doa10∆) | protein stability index (pdr5∆) | protein stability index (san1∆) | protein stability index (ubr1∆)
MNGRSLTYAQQQLNKQR [SNF6] | 3.28 ± 0.26 | 3.36 ± 0.14 | 3.02 ± 0.15 | 3.23 ± 0.15
PQQSGKKLLINKDASLA [DPB4] | 2.2 ± 0.062 | 1.99 ± 0.064 | 1.81 ± 0.1 | 2.22 ± 0.055
YGKLRNGMFCQVPSSLI [RRP4] | 2.22 ± 0.066 | 2 ± 0.1 | 2.4 ± 0.09 | 2 ± 0.072
MSGAAAASAAGYDRHIT [SCL1] | 3.08 ± 0.24 | 2.87 ± 0.16 | 3.27 ± 0.12 | 2.94 ± 0.14
LKYYQDLKNTRMKSITS [SNF5] | 1.45 ± 0.23 | 2.24 ± 0.19 | 2.4 ± 0.15 | 2.98 ± 0.22
LLISYGVSIENENKVII [SRB4] | 2.1 ± 0.096 | 2.36 ± 0.14 | 3.13 ± 0.092 | 2.93 ± 0.12
ARRRQPTDQNNQSNLNG [SNF2] | 2.88 ± 0.12 | 3.25 ± 0.19 | 3.11 ± 0.07 | 3.24 ± 0.16
QRDFRKHGAVHLSTYLK [RPL21A] | 2.6 ± 0.046 | 2.41 ± 0.042 | 2.48 ± 0.054 | 2.71 ± 0.036
VATEPLLDILVKGETRI [PRP8] | 2.43 ± 0.057 | 2.41 ± 0.044 | 2.94 ± 0.06 | 1.8 ± 0.032
TTLNEMFRYKTNLYKLK [PUP3] | 3.06 ± 0.14 | 2.66 ± 0.11 | 1.76 ± 0.13 | 2.08 ± 0.1
LKEYQSKIIVFPRNGKA [RPL13A] | 3.04 ± 0.088 | 2.9 ± 0.091 | 2.98 ± 0.055 | 3 ± 0.076
LQPIKGESARRFQKCFP [RPC40] |  | 3 ± 0.25 |  | 
FIYGMSAKDHPKVKEIK [PRP8] | 2.53 ± 0.25 | 3.12 ± 0.19 | 2.72 ± 0.23 | 3.33 ± 0.16
KELQQLQKQILTVENKL [SMC1] | 1.74 ± 0.081 | 1.99 ± 0.063 | 1.98 ± 0.091 | 2.18 ± 0.09
YMDKAKQYDNRITKSNE [LRP1] | 3.08 ± 0.063 | 2.91 ± 0.056 | 2.97 ± 0.057 | 2.94 ± 0.074
SKVVDDMPSLRLIDLSG [GRR1] | 2.8 ± 0.076 | 2.91 ± 0.081 | 2.72 ± 0.056 | 2.71 ± 0.078
EELILPNTKDAMSLYHS [PRP8] | 3.18 ± 0.055 | 3.38 ± 0.043 | 3.36 ± 0.04 | 2.8 ± 0.042
RRYDRKQSGFGGQTKPV [RPL42A] | 3.08 ± 0.084 | 3.03 ± 0.066 | 2.88 ± 0.056 | 3.148 ± 0.029
RVKDIHLRKLLDGELDF [RET1] | 2.87 ± 0.06 | 2.93 ± 0.062 | 3.03 ± 0.066 | 3.02 ± 0.041
VNSYRLNPNEYFSVTTA [SWI3] |  | 2.84 ± 0.2 | 2.3 ± 0.26 | 2.78 ± 0.22
LELMDSKKTGQFNAQGV [POP1] | 3.54 ± 0.12 | 3.6 ± 0.077 |  | 3.48 ± 0.092
NYAMTRNILHNTVPQVT [SRB5] | 1.7 ± 0.055 | 2.15 ± 0.061 | 1.66 ± 0.08 | 1.74 ± 0.038
KIIEDLRQKHEFLEDFD [SMC2] | 2.96 ± 0.097 | 2.54 ± 0.077 | 2.6 ± 0.087 | 2.94 ± 0.17
RPDLIKEDHPLEFYKDK [SIR3] | 3.17 ± 0.07 | 3.23 ± 0.055 | 3.21 ± 0.039 | 3.08 ± 0.074
KAAFEDLKSKGLIPADA [FAS1] | 3 ± 0.09 | 3.29 ± 0.1 | 3.14 ± 0.073 | 3.35 ± 0.066
IKELEHLHDAVFVNTGL [SWP82] | 2.94 ± 0.067 | 2.9 ± 0.058 | 3.06 ± 0.059 | 2.91 ± 0.05
